Test results from article PMC4582013.
Like-named read-outs stand apart in the source and are kept apart here.

T1: DNA polymerase IV (Dpo4) (Sulfolobus solfataricus, UniProt Q97W02 1-352)
T1 sequence: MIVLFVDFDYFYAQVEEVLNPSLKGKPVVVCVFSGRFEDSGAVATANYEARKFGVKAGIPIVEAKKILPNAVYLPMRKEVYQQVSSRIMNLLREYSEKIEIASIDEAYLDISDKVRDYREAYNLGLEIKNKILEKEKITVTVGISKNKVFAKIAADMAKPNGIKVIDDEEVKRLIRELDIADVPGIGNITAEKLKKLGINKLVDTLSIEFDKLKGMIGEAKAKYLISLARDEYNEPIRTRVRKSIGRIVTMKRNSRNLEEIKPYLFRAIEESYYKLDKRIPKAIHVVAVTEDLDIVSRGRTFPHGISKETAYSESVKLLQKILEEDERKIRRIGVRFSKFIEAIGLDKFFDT


Key:
[1] = target: T1, DNA polymerase IV (Dpo4); assay: EMSA
[2] = target: T1, DNA polymerase IV (Dpo4); assay: EMSA; remark: listed apart in the source

Binder | Kd [1] [nM] | Kd [2] [nM]
20/26-mer-dG1,8 (dsDNA, template G6 (from 5') is dG1,8 = 8-(deoxyguanosin-N2-yl)-1-aminopyrene; lesion is the templating base) DNA 1: AACGACGGCCAGTGAATTCG DNA 2: CCCGCGCGAATTCACTGGCCGTCGTT | 9 ± 2 | 
21/26-mer-dG1,8 (dsDNA, template G6 (from 5') is dG1,8 = 8-(deoxyguanosin-N2-yl)-1-aminopyrene; lesion paired with primer 3' end) DNA 1: AACGACGGCCAGTGAATTCGC DNA 2: CCCGCGCGAATTCACTGGCCGTCGTT |  | 27 ± 3
